Test results: patent US20040091475A1 (Chugai, published 2004)
Residue numbers refer to the chain shown, from its start. Values belong to the molecule of their own block, whether it stands above or below them.

Key:
[1] = molecular target: human TPO receptor (MPL) expressed on Ba/F3 cells (human) (UniProt P40238); test: cell-based or functional assay
[2] = molecular target: T1, human TPO receptor (MPL) expressed on Ba/F3 cells (human, UniProt P40238 26-635); test: cell-based or functional assay
T1 sequence (looked up): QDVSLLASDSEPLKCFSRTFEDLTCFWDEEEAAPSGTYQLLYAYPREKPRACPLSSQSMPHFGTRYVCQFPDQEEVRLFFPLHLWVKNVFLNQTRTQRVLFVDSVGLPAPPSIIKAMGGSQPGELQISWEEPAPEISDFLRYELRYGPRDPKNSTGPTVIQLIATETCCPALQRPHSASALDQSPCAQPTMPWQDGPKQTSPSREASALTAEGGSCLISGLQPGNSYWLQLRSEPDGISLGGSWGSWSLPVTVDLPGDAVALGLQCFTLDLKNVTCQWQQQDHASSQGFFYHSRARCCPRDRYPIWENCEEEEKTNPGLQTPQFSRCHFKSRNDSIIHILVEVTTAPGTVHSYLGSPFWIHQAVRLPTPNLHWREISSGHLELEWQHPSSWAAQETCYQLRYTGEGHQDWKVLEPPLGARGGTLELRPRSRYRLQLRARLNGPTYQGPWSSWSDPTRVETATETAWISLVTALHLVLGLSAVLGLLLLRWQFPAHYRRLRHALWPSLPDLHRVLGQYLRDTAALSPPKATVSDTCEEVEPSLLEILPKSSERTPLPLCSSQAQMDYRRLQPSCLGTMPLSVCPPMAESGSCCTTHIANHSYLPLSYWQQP

[3] = molecular target: T2, human Integrin Associated Protein (IAP) expressed on mouse leukemia cell line L1210 (human, UniProt Q08722 19-323); test: flow cytometry on L1210 cells expressing human IAP; COS7 culture supernatant; mouse anti-FLAG antibody, then FITC-labeled anti-mouse IgG antibody
T2 construct: whole, on cells; also called human IAP; hIAP/L1210
Procedure: Flow cytometry was performed using the aforementioned COS7 cells culture supernatant to measure the binding to the antigen. The culture supernatant of the COS7 cells expressing the reconstructed single chain Fv of antibody MABL-2 or the culture supernatant of COS7 cells transformed with pCHO1 vector as a control was added to 2×10⁵ cells of the mouse leukemia cell line L1210 expressing human Integrin Associated Protein (IAP) or the cell line L1210 transformed with pCOS1 as a control. After incubating on ice and washing, the mouse anti-FLAG antibody (SIGMA) was added. Then the cells were incubated and washed. Then, the FITC labeled anti-mouse IgG antibody (BECTON DICKINSON) was added thereto and the cells were incubated and washed again. Subsequently, the fluorescence intensity was measured using the FACScan apparatus (BECTON DICKINSON).

[4] = molecular target: T3, secretion-type human IAP antigen (human, UniProt Q08722 19-142, limits assumed); test: competitive ELISA: secretion-type human IAP captured on anti-FLAG antibody; competitor biotinized MABL-2 antibody at 100 ng/ml; serial dilutions of COS7 culture supernatant (x axis: dilution ratio of CM, no concentration unit)
T3 construct: captured on plates coated with anti-FLAG antibody
Procedure: The binding activity of the reconstructed single chain Fv of antibody MABL-2 was measured based on the inhibiting activity against the binding of mouse monoclonal antibodies to the antigen.
The anti-FLAG antibody adjusted to 1 μg/ml was added to each well on 96-well plate and incubated at 37° C. for 2 hours. After washing, blocking was performed with 1% BSA-PBS. After incubating and washing at a room temperature, the culture supernatant of COS7 cells into which the secretion-type human IAP antigen gene (SEQ ID No. 26) had been introduced was diluted with PBS into twofold volume and added to each well. After incubating and washing at a room temperature, a mixture of 50 μl of the biotinized MABL-2 antibody adjusted to 100 ng/ml and 50 μl of sequentially diluted supernatant of the COS7 cells expressing the reconstructed single chain Fv of antibody MABL-2 were added into each well. After incubating and washing at a room temperature, the alkaline phosphatase-conjugated streptoavidin (Zymed) was added into each well. After incubating and washing at a room temperature, the substrate solution (SIGMA) was added and absorbance of the reaction mixture in each well was measured at 405 nm.

[5] = molecular target: T2, human Integrin Associated Protein (IAP) …; test: flow cytometry on L1210 cells expressing human IAP; COS7 culture supernatant; FITC-labeled anti-human IgG antibody
[6] = molecular target: T2, human Integrin Associated Protein (IAP) …; test: flow cytometry, 10 µg/ml antibody on L1210 cells expressing human IAP (panel B), pCOS1/L1210 cells as control (panel A); FITC-labeled anti-mouse IgG antibody
Procedure: Flow cytometry was performed using the purified dimer of MABL2-scFv <HL-5> and the purified sc(Fv)₂ in order to evaluate the binding to human Integrin Associated Protein (IAP) antigen. 10 μg/ml of the purified dimer of MABL2-scFv <HL-5>, the purified sc(Fv)₂, the antibody MABL-2 as a positive control or a mouse IgG (Zymed) as a negative control was added to 2×10⁵ cells of the mouse leukemia cell line L1210 expressing human IAP (hIAP/L1210) or the cell line L1210 transformed with pCOS1 (pCOS1/L1210) as a control. After incubating on ice and washing, 10 μg/mL of the mouse anti-FLAG antibody (SIGMA) was added and then the cells were incubated and washed. FITC labeled anti-mouse IgG antibody (BECTON DICKINSON) was added thereto and the cells were incubated and washed again. Then the fluorescence intensity was measured using the FACScan apparatus (BECTON DICKINSON).

[7] = molecular target: T2, human Integrin Associated Protein (IAP) …; test: flow cytometry on L1210 cells expressing human IAP; COS7 culture supernatant; FITC-labeled anti-human IgG antibody; remark: listed apart in the source
[8] = molecular target: T2, human Integrin Associated Protein (IAP) …; test: flow cytometry on L1210 cells expressing human IAP; COS7 culture supernatant; mouse anti-FLAG antibody, then FITC-labeled anti-mouse IgG antibody; remark: listed apart in the source
Procedure: Flow cytometry was performed using the culture supernatants of COS7 cells prepared in Example 6.3 (1) to measure the binding of the MABL2-scFVs and sc(Fv)₂ to human Integrin Associated Protein (IAP) antigen. The culture supernatants to be tested or a culture supernatant of COS7 cells as a control was added to 2×10⁵ cells of the mouse leukemia cell line L1210 expressing human IAP. After incubating on ice and washing, 10 μg/mL of the mouse anti-FLAG antibody (SIGMA) was added and then the cells were incubated and washed. Then, the FITC labeled anti-mouse IgG antibody (BECTON DICKINSON) was added thereto and the cells were incubated and washed again. The fluorescence intensity was measured using the FACScan apparatus (BECTON DICKINSON).

T2 sequence (Q08722 19-323): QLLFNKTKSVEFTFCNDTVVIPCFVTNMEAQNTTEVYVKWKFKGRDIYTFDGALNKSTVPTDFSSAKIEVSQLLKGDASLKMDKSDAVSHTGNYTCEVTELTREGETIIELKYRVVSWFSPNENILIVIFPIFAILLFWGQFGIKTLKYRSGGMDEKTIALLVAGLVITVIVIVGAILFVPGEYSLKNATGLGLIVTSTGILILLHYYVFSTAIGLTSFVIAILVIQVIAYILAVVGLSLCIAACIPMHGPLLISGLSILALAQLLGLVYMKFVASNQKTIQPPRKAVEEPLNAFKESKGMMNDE
T3 sequence (Q08722 other isoform, or with tags, fused parts or gaps limits assumed): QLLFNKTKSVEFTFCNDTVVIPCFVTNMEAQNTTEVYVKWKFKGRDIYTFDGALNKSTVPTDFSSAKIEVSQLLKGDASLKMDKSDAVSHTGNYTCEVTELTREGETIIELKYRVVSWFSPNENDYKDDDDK

B1: antibody 12B5 (IgG) (antibody, V domains shown)
VH: QVQLVQSGGGLVRPGGSLSLSCAVSGITLRTYGMHWVRQAPGKGLEWVAGISFDGRSEYYADSVQGRFTISRDSSKNTLYLQMNSLRAEDTAVYYCARGAHYGFDIWGQGTMVTVSS
VL: DIQMTQSPSTLSASIGDRVTITCRASEGIYHWLAWYQQKPGKAPKLLIYKASSLASGAPSRFSGSGSGTDFTLTISSLQPDDFATYYCQQYSNYPLTFGGGTKLEIK
TPO-like agonist activity: proliferation of Ba/F3 cells expressing human TPO receptor (BaF/mpl), WST-8; ED50 [2]: 29 nM

B2: 12B5Fab fragment (Fab, V domains shown)
VH: B1 VH
VL: B1 VL
TPO-like agonist activity: proliferation of Ba/F3 cells expressing human TPO receptor (BaF/mpl), WST-8; ED50 [2]: 34700 nM

B6: reconstructed single chain Fv of antibody MABL-2 (plasmid pCHOM2), culture supernatant of COS7 cells (scFv)
scFv: QVQLQQSGPELVKPGASVKMSCKASGYTFANHVIHWVKQKPGQGLEWIGYIYPYNDGTKYNEKFKDKATLTSDKSSTTAYMDLSSLASEDSAVYYCARGGYYTYDDWGQGTTLTVSSGGGGSGGGGSGGGGSDVVMTQSPLSLPVSLGDQASISCRSSQSLVHSNGKTYLHWYLQKPGQSPKLLIYKVSNRFSGVPDRFSGSGSVTDFTLMISRVEAEDLGVYFCSQSTHVPYTFGGGTKLEIKDYKDDDDK
notes: VH-(Gly4Ser)3-VL-FLAG; Unfractionated supernatant (monomer and dimer not separated); also called MABL2-scFv; MABL2-scFv/COS7
binding result [3]: binds
binding result [4]: binds

B7: chimera MABL-1 antibody (antibody, V domains shown)
VH: QVQLQQSGPDLVKPGASVKMSCKASGYTFVNHVMHWVKQKPGQGLEWIGYIYPYNDGTKYNEKFKGKATLTSEKSSSAAYMELSSLASEDSAVYYCARGGYYSYDDWGQGTTLTVSS
VL: DVVMTQTPLSLPVSLGDQASISCRSSQSLLHSKGNTYLQWYLQKPGQSPKLLIYKVSNRFSGVPDRFSGSGSGTDFTLKISRVEAEDLGVYFCSQSTHVPYTSGGGTKLEIK
notes: Mouse MABL-1 V regions cloned into HEF-gamma and HEF-kappa expression vectors (human constant regions); tested as COS7 culture supernatant
binding result [5]: binds

B8: mouse monoclonal antibody MABL-2 (antibody, V domains shown)
VH: B7 VH with D10E, V30A, M34I, G66D, E73D, S77T, A78T, E82D, S103T
VL: B7 VL with T7S, L30V, K33N, N35K, Q39H, G73V, K79M, S103F
notes: Whole mouse antibody from hybridoma MABL-2 (H chain amplified with the MHC-gamma2a primer, kappa L chain); also called MABL-2 (intact)
binding result [6]: binds

B9: chimera MABL-2 antibody (antibody, V domains shown)
VH: B7 VH with D10E, V30A, M34I, G66D, E73D, S77T, A78T, E82D, S103T
VL: B7 VL with T7S, L30V, K33N, N35K, Q39H, G73V, K79M, S103F
notes: Mouse MABL-2 V regions cloned into HEF-gamma and HEF-kappa expression vectors (human constant regions); tested as COS7 culture supernatant
binding result [7]: binds

B10: antibody MABL-2 sc(Fv)2 (scFv)
chain: QVQLQQSGPELVKPGASVKMSCKASGYTFANHVIHWVKQKPGQGLEWIGYIYPYNDGTKYNEKFKDKATLTSDKSSTTAYMDLSSLASEDSAVYYCARGGYYTYDDWGQGTTLTVSSGGGGSGGGGSGGGGSDVVMTQSPLSLPVSLGDQASISCRSSQSLVHSNGKTYLHWYLQKPGQSPKLLIYKVSNRFSGVPDRFSGSGSVTDFTLMISRVEAEDLGVYFCSQSTHVPYTFGGGTKLEIKGGGGSGGGGSGGGGSVDSQVQLQQSGPELVKPGASVKMSCKASGYTFANHVIHWVKQKPGQGLEWIGYIYPYNDGTKYNEKFKDKATLTSDKSSTTAYMDLSSLASEDSAVYYCARGGYYTYDDWGQGTTLTVSSGGGGSGGGGSGGGGSDVVMTQSPLSLPVSLGDQASISCRSSQSLVHSNGKTYLHWYLQKPGQSPKLLIYKVSNRFSGVPDRFSGSGSVTDFTLMISRVEAEDLGVYFCSQSTHVPYTFGGGTKLEIKDYKDDDDK
notes: Single chain polypeptide with two H chain V regions and two L chain V regions of MABL-2, FLAG at the C-terminus; eluted at the position of the monomer; also called pCHOM2(Fv)2
binding result [8]: binds

The next lines start with the values.

proliferation of Ba/F3 cells expressing human TPO receptor (BaF/mpl), WST-8; ED50 [1]: 0.027 nM
Molecule: human TPO (R&D Systems) (from UniProt P40225 22-353) (ligand)

TPO-like agonist activity: proliferation of Ba/F3 cells expressing human TPO receptor (BaF/mpl), WST-8; ED50 [2]: 75 nM
B3: reconstructed 12B5 single chain Fv (sc12B5), culture supernatant of COS-7 cells (scFv)
scFv: QVQLVQSGGGLVRPGGSLSLSCAVSGITLRTYGMHWVRQAPGKGLEWVAGISFDGRSEYYADSVQGRFTISRDSSKNTLYLQMNSLRAEDTAVYYCARGAHYGFDIWGQGTMVTVSSGGGGSGGGGSGGGGSDIQMTQSPSTLSASIGDRVTITCRASEGIYHWLAWYQQKPGKAPKLLIYKASSLASGAPSRFSGSGSGTDFTLTISSLQPDDFATYYCQQYSNYPLTFGGGTKLEIKDYKDDDDK

TPO-like agonist activity: proliferation of Ba/F3 cells expressing human TPO receptor (BaF/mpl), WST-8; ED50 [2]: 4440 nM
B4: sc12B5 monomer (scFv)
scFv: B3 scFv

TPO-like agonist activity: fold against monovalent sc12B5 [2]: ~400 fold
TPO-like agonist activity: proliferation of Ba/F3 cells expressing human TPO receptor (BaF/mpl), WST-8; ED50 [2]: 10.1 nM
B5: sc12B5 dimer (scFv)
scFv: B3 scFv
